Assay results as given in publication PMC9736777, “Expression and Characterization of Monomeric Recombinant Isocitrate Dehydrogenases from Corynebacterium glutamicum and Azotobacter vinelandii for NADPH Regeneration” (International Journal of Molecular Sciences, 2022).

B1: AvIDH (Azotobacter vinelandii) (protein)
chain: STPKIIYTLTDEAPALATYSLLPIIKAFTGSSGIAVETRDISLAGRLIATFPEYLTDTQKISDDLAELGKLATTPDANIIKLPNISASVPQLKAAIKELQQQGYKLPDYPEEPKTDTEKDVKARYDKIKGSAVNPVLREGNSDRRAPLSVKNYARKHPHKMGAWSADSKSHVAHMDNGDFYGSEKAALIGAPGSVKIELIAKDGSSTVLKAKTSVQAGEIIDSSVMSKNALRNFIAAEIEDAKKQGVLLSVHLKATMMKVSDPIMFGQIVSEFYKDALTKHAEVLKQIGFDVNNGIGDLYARIKTLPEAKQKEIEADIQAVYAQRPQLAMVNSDKGITNLHVPSDVIVDASMPAMIRDSGKMWGPDGKLHDTKAVIPDRCYAGVYQVVIEDCKQHGAFDPTTMGSVPNVGLMAQKAEEYGSHDKTFQIPADGVVRVTDESGKLLLEQSVEAGDIWRMCQAKDAPIQDWVKLAVNRARATNTPAVFWLDPARAHDAQVIAKVERYLKDYDTSGLDIRILSPVEATRFSLARIREGKDTISVTGNVLRDYLTDLFPIMELGTSAKMLSIVPLMSGGGLFETGAGGSAPKHVQQFLEEGYLRWDSLGEFLALAASLEHLGNAYKNPKALVLASTLDQATGKILDNNKSPARKVGEIDNRGSHFYLALYWAQALAAQTEDKELQAQFTGIAKALTDNETKIVGELAAAQGKPVDIAGYYHPNTDLTSKAIRPSATFNAALAPLA
notes: full-length gene, C-terminal 6xHis (kept), pET24a, E. coli BL21(DE3), Ni-NTA
B2: CgIDH (Corynebacterium glutamicum ATCC 13032) (protein)
chain: MAKIIWTRTDEAPLLATYSLKPVVEAFAATAGIEVETRDISLAGRILAQFPERLTEDQKVGNALAELGELAKTPEANIIKLPNISASVPQLKAAIKELQDQGYDIPELPDNATTDEEKDILARYNAVKGSAVNPVLREGNSDRRAPIAVKNFVKKFPHRMGEWSADSKTNVATMDANDFRHNEKSIILDAADEVQIKHIAADGTETILKDSLKLLEGEVLDGTVLSAKALDAFLLEQVARAKAEGILFSAHLKATMMKVSDPIIFGHVVRAYFADVFAQYGEQLLAAGLNGENGLAAILSGLESLDNGEEIKAAFEKGLEDGPDLAMVNSARGITNLHVPSDVIVDASMPAMIRTSGHMWNKDDQEQDTLAIIPDSSYAGVYQTVIEDCRKNGAFDPTTMGTVPNVGLMAQKAEEYGSHDKTFRIEADGVVQVVSSNGDVLIEHDVEANDIWRACQVKDAPIQDWVKLAVTRSRLSGMPAVFWLDPERAHDRNLASLVEKYLADHDTEGLDIQILSPVEATQLSIDRIRRGEDTISVTGNVLRDYNTDLFPILELGTSAKMLSVVPLMAGGGLFETGAGGSAPKHVQQVQEENHLRWDSLGEFLALAESFRHELNNNGNTKAGVLADALDKATEKLLNEEKSPSRKVGEIDNRGSHFWLTKFWADELAAQTEDADLAATFAPVAEALNTGAADIDAALLAVQGGATDLGGYYSPNEEKLTNIMRPVAQFNEIVDALKK
notes: full-length gene, C-terminal 6xHis (kept), pET24a, E. coli BL21(DE3), Ni-NTA; about 80 kDa by SEC, monomer

Assays:
Test in all cases: NADPH fluorescence, initial rates, Michaelis-Menten fit
[1] = substrate: NC(=O)c1ccc[n+]([C@@H]2O[C@H](COP(=O)(O)OP(=O)(O)OC[C@H]3O[C@@H](n4cnc5c(N)ncnc54)[C@H](OP(=O)(O)O)[C@@H]3O)[C@@H](O)[C@H]2O)c1; format: biochemical, Azotobacter vinelandii; conditions: 1 mM isocitrate, 1 mM MnCl2, 20 mM MOPS pH 7.4, 100 mM NaCl, 30 °C, varied: cofactor
Excerpt: (§1) NADPH fluorescence, initial rates, Michaelis-Menten fit on AvIDH

[2] = substrate: O=C(O)CC(C(=O)O)C(O)C(=O)O; format: biochemical, Azotobacter vinelandii; conditions: 1 mM NADP+, 1 mM MnCl2, 20 mM MOPS pH 7.4, 100 mM NaCl, 30 °C, DL-isocitrate 0-100 μM
Excerpt: as §1

[3] = substrate: NC(=O)c1ccc[n+]([C@@H]2O[C@H](COP(=O)(O)OP(=O)(O)OC[C@H]3O[C@@H](n4cnc5c(N)ncnc54)[C@H](OP(=O)(O)O)[C@@H]3O)[C@@H](O)[C@H]2O)c1; format: biochemical, Corynebacterium glutamicum; conditions: 1 mM isocitrate, 1 mM MnCl2, 20 mM MOPS pH 7.4, 100 mM NaCl, 30 °C, varied: cofactor
Excerpt: (§2) NADPH fluorescence, initial rates, Michaelis-Menten fit on CgIDH

[4] = substrate: O=C(O)CC(C(=O)O)C(O)C(=O)O; format: biochemical, Corynebacterium glutamicum; conditions: 1 mM NADP+, 1 mM MnCl2, 20 mM MOPS pH 7.4, 100 mM NaCl, 30 °C, DL-isocitrate 0-100 μM
Excerpt: as §2

| Protein | Km [1] [µM] | kcat [1] [s⁻¹] | kcat/Km [1] [M⁻¹ s⁻¹] | Km [2] [µM] | kcat [2] [s⁻¹] | kcat/Km [2] [M⁻¹ s⁻¹] | Km [3] [µM] | kcat [3] [s⁻¹] | kcat/Km [3] [M⁻¹ s⁻¹] | Km [4] [µM] | kcat [4] [s⁻¹] | kcat/Km [4] [M⁻¹ s⁻¹] |
| --- | --- | --- | --- | --- | --- | --- | --- | --- | --- | --- | --- | --- |
| B1 | 5.9 | 38.7 | 6.6e+06 | 13.9 | 44 | 3.2e+06 |  |  |  |  |  |  |
| B2 |  |  |  |  |  |  | 10.3 | 43.7 | 4.3e+06 | 15.0 | 49.4 | 3.3e+06 |
